Assay results taken from paper PMC3320615, “β-Microseminoprotein Endows Post Coital Seminal Plasma with Potent Candidacidal Activity by a Calcium- and pH-Dependent Mechanism” (PLoS Pathogens, 2012).

System: C. albicans
Assay: Antifungal gel overlay assay (AU-PAGE)
Type: cell-based, Candida albicans
Experimental: Gel overlay assay was performed essentially as described. Briefly, duplicate samples were run on native Acid Urea (AU-PAGE) gels in 5% (v/v) acetic acid at 100 V for 1 h 20 min. Candida albicans was grown over night, washed and resuspended in 10 mM NaPO4 pH 7.4 and approximately 1×10^5 CFU were added to 12 ml melted underlay agarose (10 mM NaPO4, pH 7.4, 0.03% SAB, 1% agarose type 1 (Sigma, St. Louis, MO)) and poured into a square Petri dish. One AU-gel was stained with Coomassie brilliant blue and one AU gel was washed 3×4 min in 10 mM NaPO4, pH 7.4 and then placed on top of the agarose and incubated for 4 h at 37°C. The AU gel was then removed and an overlay agarose (6% SAB, 1% agarosetype 1 (Sigma)) was poured on top of the underlay and incubated over night at 30°C. To make the clearing zones more visible, the agarose was stained with Coomassie brilliant blue followed by destaining.

B1: β-microseminoprotein (natural protein, human, UniProt P08118 21-114, looked up)
chain: SCYFIPNEGVPGDSTRKCMDLKGNKHPINSEWQTDNCETCTCYETEISCCTLVSTPVGYDKDNCQRIFKKEDCKYIVVEKKDPKKTCSVSEWII
notes: human β-microseminoprotein (MSP, PSP94), native protein purified from seminal plasma; also called MSP; PSP94
Clearing zone in antifungal gel overlay assay: displayed antifungal activity by producing a clearing zone
